Assay results taken from patent publication US20220380471A1.
Where a chain is given by its changes, count along the chain named.

Tests used:
PD-L1 [1] = test: ELISA; row PDL1-Fc; well 3 of 3
rat B7H3-His (rat) [2] = target: T1, rat B7H3-His (rat) (UniProt Q7TPB4); test: ELISA; row Rat; well 1 of 3
T1 sequence (looked up): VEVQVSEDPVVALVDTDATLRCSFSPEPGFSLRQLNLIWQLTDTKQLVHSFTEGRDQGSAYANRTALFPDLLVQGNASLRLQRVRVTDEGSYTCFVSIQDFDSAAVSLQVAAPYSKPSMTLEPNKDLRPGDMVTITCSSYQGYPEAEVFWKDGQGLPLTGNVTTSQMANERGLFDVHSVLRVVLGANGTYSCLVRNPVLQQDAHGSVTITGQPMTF

hB7H3-His (human) [3] = target: hB7H3-His (human) (UniProt Q5ZPR3); test: ELISA; row B7H3-his; well 1 of 3
Sequence of hB7H3-His (human) (Q5ZPR3 29-461 limits assumed): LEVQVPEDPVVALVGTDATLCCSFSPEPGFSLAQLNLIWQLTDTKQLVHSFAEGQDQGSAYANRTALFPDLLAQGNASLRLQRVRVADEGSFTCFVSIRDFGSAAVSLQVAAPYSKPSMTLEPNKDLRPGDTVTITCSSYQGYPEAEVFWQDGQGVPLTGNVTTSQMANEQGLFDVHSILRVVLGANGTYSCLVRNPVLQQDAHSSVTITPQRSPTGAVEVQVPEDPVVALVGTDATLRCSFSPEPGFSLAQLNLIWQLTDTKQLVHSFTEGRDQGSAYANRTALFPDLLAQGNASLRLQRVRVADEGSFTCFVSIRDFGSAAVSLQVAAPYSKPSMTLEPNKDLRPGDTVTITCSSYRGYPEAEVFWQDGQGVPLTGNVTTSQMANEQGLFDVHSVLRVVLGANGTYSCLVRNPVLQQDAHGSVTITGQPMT

Irrelevant antigen [4] = test: ELISA; row Irrelevant antigen; well 2 of 3
rat B7H3-His (rat) [5] = target: T1, rat B7H3-His (rat); test: ELISA; row Rat; well 2 of 3
human B7H3 (human) [6] = target: human B7H3 (human) (UniProt Q5ZPR3); test: ELISA; row Human; well 2 of 3
Sequence of human B7H3 (human) (Q5ZPR3 29-466 limits assumed): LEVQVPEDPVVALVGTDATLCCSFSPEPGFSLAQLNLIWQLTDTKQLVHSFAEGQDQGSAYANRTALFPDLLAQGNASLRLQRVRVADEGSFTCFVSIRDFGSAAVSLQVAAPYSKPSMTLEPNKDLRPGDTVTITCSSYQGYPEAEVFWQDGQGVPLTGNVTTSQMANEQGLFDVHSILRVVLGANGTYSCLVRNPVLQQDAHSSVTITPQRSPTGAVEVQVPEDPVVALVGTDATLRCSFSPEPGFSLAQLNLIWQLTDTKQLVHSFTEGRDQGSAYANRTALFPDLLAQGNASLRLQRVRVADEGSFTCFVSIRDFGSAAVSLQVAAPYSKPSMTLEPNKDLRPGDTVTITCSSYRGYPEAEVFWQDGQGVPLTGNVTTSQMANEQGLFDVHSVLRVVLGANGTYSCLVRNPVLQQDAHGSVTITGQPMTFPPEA

mouse B7H3-His (mouse) [7] = target: T2, mouse B7H3-His (mouse) (UniProt Q8VE98); test: ELISA; row Mouse-2 (mB7H3); well 1 of 3
T2 sequence (looked up): T1 sequence (looked up) with R33A, A62S, D131N, L156V, M214L

hB7H3-His (human) [8] = target: hB7H3-His (human) (UniProt Q5ZPR3); test: ELISA; row B7H3-his; well 2 of 3
monkey B7H3-His (monkey) [9] = test: ELISA; row Monkey; well 2 of 3
B7H3 R&D [10] = test: ELISA; row B7H3 R&D; well 2 of 3
human B7H3 (human) [11] = target: human B7H3 (human) (UniProt Q5ZPR3); test: ELISA; row Human; well 3 of 3
PD-L1 [12] = test: ELISA; row PDL1-Fc; well 1 of 3
monkey B7H3-His (monkey) [13] = test: ELISA; row Monkey; well 3 of 3
Irrelevant antigen [14] = test: ELISA; row Irrelevant antigen; well 1 of 3
Irrelevant antigen [15] = test: ELISA; row Irrelevant antigen; well 3 of 3
[16] = target: recombinant human B7H3-Fc protein (human) (UniProt Q5ZPR3); test: ELISA; row B7H3-Fc; well 2 of 3
Sequence of recombinant human B7H3-Fc protein (human) (Q5ZPR3 29-466 limits assumed): as above

human B7H3 (human) [17] = target: human B7H3 (human) (UniProt Q5ZPR3); test: ELISA; row Human; well 1 of 3
HN3-Fc [18] = test: ELISA; row HN3-Fc; well 2 of 3
mouse B7H3-His (mouse) [19] = target: T2, mouse B7H3-His (mouse); test: ELISA; row Mouse-1 (msB7H3); well 2 of 3
[20] = target: recombinant human B7H3-Fc protein (human) (UniProt Q5ZPR3); test: ELISA; row B7H3-Fc; well 3 of 3
mouse B7H3-His (mouse) [21] = target: T2, mouse B7H3-His (mouse); test: ELISA; row Mouse-1 (msB7H3); well 1 of 3
HN3-Fc [22] = test: ELISA; row HN3-Fc; well 3 of 3
[23] = target: recombinant human B7H3-Fc protein (human) (UniProt Q5ZPR3); test: ELISA; row B7H3-Fc; well 1 of 3
PD-L1 [24] = test: ELISA; row PDL1-Fc; well 2 of 3
HN3-Fc [25] = test: ELISA; row HN3-Fc; well 1 of 3
mouse B7H3-His (mouse) [26] = target: T2, mouse B7H3-His (mouse); test: ELISA; row Mouse-1 (msB7H3); well 3 of 3
monkey B7H3-His (monkey) [27] = test: ELISA; row Monkey; well 1 of 3
mouse B7H3-His (mouse) [28] = target: T2, mouse B7H3-His (mouse); test: ELISA; row Mouse-2 (mB7H3); well 3 of 3
rat B7H3-His (rat) [29] = target: T1, rat B7H3-His (rat); test: ELISA; row Rat; well 3 of 3
B7H3 R&D [30] = test: ELISA; row B7H3 R&D; well 3 of 3
B7H3 R&D [31] = test: ELISA; row B7H3 R&D; well 1 of 3
mouse B7H3-His (mouse) [32] = target: T2, mouse B7H3-His (mouse); test: ELISA; row Mouse-2 (mB7H3); well 2 of 3
hB7H3-His (human) [33] = target: hB7H3-His (human) (UniProt Q5ZPR3); test: ELISA; row B7H3-his; well 3 of 3

Sequence of PD-L1 (Q9NZQ7 19-238): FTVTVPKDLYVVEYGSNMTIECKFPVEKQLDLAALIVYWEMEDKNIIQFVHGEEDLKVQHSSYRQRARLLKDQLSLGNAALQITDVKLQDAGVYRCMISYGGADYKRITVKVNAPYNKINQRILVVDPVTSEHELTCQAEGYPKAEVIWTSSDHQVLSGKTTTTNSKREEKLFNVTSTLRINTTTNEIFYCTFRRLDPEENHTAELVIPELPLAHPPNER

Substance: commercial anti-human B7H3 hybridoma antibody 376.96
- ELISA reading (name not given) (PD-L1 [1]): 0.0749
- ELISA reading (name not given) (rat B7H3-His (rat) [2]): 0.981
- ELISA reading (name not given) (hB7H3-His (human) [3]): 0.811
- ELISA reading (name not given) (Irrelevant antigen [4]): 0.0634
- ELISA reading (name not given) (rat B7H3-His (rat) [5]): 1.01
- ELISA reading (name not given) (human B7H3 (human) [6]): 1.57
- ELISA reading (name not given) (mouse B7H3-His (mouse) [7]): 0.157
- ELISA reading (name not given) (hB7H3-His (human) [8]): 0.812
- ELISA reading (name not given) (monkey B7H3-His (monkey) [9]): 1.59
- ELISA reading (name not given) (B7H3 R&D [10]): 0.993
- ELISA reading (name not given) (human B7H3 (human) [11]): 1.44
- ELISA reading (name not given) (PD-L1 [12]): 0.0652
- ELISA reading (name not given) (monkey B7H3-His (monkey) [13]): 1.65
- ELISA reading (name not given) (Irrelevant antigen [14]): 0.0531
- ELISA reading (name not given) (Irrelevant antigen [15]): 0.0624
- ELISA reading (name not given) [16]: 1.59
- ELISA reading (name not given) (human B7H3 (human) [17]): 1.48
- ELISA reading (name not given) (HN3-Fc [18]): 0.0541
- ELISA reading (name not given) (mouse B7H3-His (mouse) [19]): 0.156
- ELISA reading (name not given) [20]: 1.59
- ELISA reading (name not given) (mouse B7H3-His (mouse) [21]): 0.14
- ELISA reading (name not given) (HN3-Fc [22]): 0.0521
- ELISA reading (name not given) [23]: 1.61
- ELISA reading (name not given) (PD-L1 [24]): 0.0812
- ELISA reading (name not given) (HN3-Fc [25]): 0.0545
- ELISA reading (name not given) (mouse B7H3-His (mouse) [26]): 0.133
- ELISA reading (name not given) (monkey B7H3-His (monkey) [27]): 1.59
- ELISA reading (name not given) (mouse B7H3-His (mouse) [28]): 0.184
- ELISA reading (name not given) (rat B7H3-His (rat) [29]): 1.06
- ELISA reading (name not given) (B7H3 R&D [30]): 1.07
- ELISA reading (name not given) (B7H3 R&D [31]): 0.991
- ELISA reading (name not given) (mouse B7H3-His (mouse) [32]): 0.145
- ELISA reading (name not given) (hB7H3-His (human) [33]): 0.813
